# Results reported in paper PMC5787697, “Transcriptome-wide identification of the RNA-binding landscape of the chromatin-associated protein PARP1 reveals functions in RNA biogenesis”.
# Assays:
# [1] = target: T1, PARP1-ΔCAT (human, UniProt P09874 1-662); experiment: competition EMSA; vs N1 in same reaction; 25 mM Tris pH 7.5, 75 mM NaCl, 50 mM arginine, 0.1 mM TCEP, 0.1 ug/ul BSA, room temperature 30 min; 0.05 uM probe, 0-2.5 uM protein; native 10% PAGE in TBE; conditions: protein: recombinant; tags: His; chain copies: 2; label: 32P; single strand
# T1 sequence (P09874 1-662, stated change not applied): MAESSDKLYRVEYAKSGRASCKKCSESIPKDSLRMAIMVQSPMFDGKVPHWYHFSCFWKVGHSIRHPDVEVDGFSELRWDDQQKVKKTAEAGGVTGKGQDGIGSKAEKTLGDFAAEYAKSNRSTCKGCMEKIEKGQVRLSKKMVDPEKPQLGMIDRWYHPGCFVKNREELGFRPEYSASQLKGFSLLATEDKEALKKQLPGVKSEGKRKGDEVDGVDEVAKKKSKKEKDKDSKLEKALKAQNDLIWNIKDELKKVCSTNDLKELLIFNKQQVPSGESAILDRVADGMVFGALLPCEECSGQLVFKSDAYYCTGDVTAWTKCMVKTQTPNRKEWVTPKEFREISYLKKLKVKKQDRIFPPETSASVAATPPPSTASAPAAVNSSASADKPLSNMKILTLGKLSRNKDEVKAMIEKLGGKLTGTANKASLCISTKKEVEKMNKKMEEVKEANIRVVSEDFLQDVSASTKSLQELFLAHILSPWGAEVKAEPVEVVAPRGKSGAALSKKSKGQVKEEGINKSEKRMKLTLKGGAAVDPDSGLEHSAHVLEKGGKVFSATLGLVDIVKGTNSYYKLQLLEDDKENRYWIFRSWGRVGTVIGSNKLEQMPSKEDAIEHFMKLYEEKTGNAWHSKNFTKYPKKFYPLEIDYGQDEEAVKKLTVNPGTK
# [2] = target: T2, PARP1-ΔZn1ΔZn2 (human, UniProt P09874 216-1014); experiment: as above; conditions: protein: recombinant; tags: His; chain copies: 2; label: 32P; single strand
# T2 sequence (P09874 216-1014, stated change not applied): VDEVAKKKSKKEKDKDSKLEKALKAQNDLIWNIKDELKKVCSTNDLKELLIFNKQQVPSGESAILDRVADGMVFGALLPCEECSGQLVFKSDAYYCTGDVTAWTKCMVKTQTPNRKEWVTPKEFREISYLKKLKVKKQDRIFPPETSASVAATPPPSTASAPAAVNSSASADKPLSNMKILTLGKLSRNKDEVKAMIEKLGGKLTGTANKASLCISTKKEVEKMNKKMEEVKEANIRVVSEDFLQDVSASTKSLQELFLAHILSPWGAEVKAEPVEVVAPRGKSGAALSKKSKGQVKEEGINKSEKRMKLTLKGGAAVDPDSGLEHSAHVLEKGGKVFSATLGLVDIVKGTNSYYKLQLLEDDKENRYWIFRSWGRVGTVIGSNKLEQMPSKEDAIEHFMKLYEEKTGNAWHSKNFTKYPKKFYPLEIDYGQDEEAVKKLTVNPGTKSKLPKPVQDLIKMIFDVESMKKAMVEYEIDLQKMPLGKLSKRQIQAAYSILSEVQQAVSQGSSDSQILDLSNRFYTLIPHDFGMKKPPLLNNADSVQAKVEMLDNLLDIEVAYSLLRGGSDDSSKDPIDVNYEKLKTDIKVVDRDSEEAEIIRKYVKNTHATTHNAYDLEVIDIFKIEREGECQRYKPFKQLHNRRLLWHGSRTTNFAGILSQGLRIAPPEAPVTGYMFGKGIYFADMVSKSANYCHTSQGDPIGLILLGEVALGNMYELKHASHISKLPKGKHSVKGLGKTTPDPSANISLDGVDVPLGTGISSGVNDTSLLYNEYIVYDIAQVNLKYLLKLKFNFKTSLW
# [3] = target: T3, PARP1-FL (human, UniProt P09874 1-1014); experiment: as above; conditions: protein: recombinant; tags: His; label: 32P; single strand
# T3 sequence (P09874 whole entry): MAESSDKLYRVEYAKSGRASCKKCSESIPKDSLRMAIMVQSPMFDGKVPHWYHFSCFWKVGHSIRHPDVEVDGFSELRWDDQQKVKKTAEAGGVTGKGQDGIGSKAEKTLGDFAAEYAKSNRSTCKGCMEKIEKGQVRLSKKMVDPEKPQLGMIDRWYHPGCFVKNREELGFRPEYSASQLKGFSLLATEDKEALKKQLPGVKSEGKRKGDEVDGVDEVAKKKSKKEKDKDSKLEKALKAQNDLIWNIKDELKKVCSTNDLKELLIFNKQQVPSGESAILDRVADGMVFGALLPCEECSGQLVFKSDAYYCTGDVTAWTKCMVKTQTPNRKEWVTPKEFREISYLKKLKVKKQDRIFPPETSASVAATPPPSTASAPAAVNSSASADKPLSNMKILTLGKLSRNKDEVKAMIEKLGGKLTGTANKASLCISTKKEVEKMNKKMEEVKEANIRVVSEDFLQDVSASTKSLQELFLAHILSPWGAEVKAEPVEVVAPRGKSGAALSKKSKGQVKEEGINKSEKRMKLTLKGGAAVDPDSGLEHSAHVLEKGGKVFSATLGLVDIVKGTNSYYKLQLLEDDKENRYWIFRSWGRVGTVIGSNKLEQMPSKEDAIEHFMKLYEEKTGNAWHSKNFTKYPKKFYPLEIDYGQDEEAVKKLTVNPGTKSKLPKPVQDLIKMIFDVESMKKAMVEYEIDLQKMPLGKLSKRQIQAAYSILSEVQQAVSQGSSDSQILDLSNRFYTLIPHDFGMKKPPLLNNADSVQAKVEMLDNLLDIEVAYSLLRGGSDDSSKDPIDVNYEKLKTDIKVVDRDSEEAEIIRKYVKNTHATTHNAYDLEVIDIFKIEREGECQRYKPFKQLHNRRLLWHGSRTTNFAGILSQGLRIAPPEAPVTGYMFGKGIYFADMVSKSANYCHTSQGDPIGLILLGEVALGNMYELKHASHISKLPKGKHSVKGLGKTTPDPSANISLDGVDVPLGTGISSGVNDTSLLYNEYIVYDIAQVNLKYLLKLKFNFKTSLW
# [4] = target: T1, PARP1-ΔCAT; experiment: EMSA; monomer-equivalent K, n=2.77±0.13; 25 mM Tris pH 7.5, 75 mM NaCl, 50 mM arginine, 0.1 mM TCEP, 0.1 ug/ul BSA, room temperature 30 min; 0.05 uM probe, 0-2.5 uM protein; native 10% PAGE in TBE; conditions: protein: recombinant; tags: His; chain copies: 2; label: 32P; single strand
# [5] = target: T3, PARP1-FL; experiment: EMSA; monomer-equivalent K, n=2.17±0.15; 25 mM Tris pH 7.5, 75 mM NaCl, 50 mM arginine, 0.1 mM TCEP, 0.1 ug/ul BSA, room temperature 30 min; 0.05 uM probe, 0-2.5 uM protein; native 10% PAGE in TBE; conditions: protein: recombinant; tags: His; chain copies: 2; label: 32P; single strand
# [6] = target: T2, PARP1-ΔZn1ΔZn2; experiment: EMSA; monomer-equivalent K, n=2.16±0.19; 25 mM Tris pH 7.5, 75 mM NaCl, 50 mM arginine, 0.1 mM TCEP, 0.1 ug/ul BSA, room temperature 30 min; 0.05 uM probe, 0-2.5 uM protein; native 10% PAGE in TBE; conditions: protein: recombinant; tags: His; chain copies: 2; label: 32P; single strand
# [7] = target: T2, PARP1-ΔZn1ΔZn2; experiment: EMSA; monomer-equivalent K, n=2.04±0.15; 25 mM Tris pH 7.5, 75 mM NaCl, 50 mM arginine, 0.1 mM TCEP, 0.1 ug/ul BSA, room temperature 30 min; 0.05 uM probe, 0-2.5 uM protein; native 10% PAGE in TBE; conditions: protein: recombinant; tags: His; chain copies: 2; label: 32P; single strand
# [8] = target: T1, PARP1-ΔCAT; experiment: EMSA; monomer-equivalent K, n=2.04±0.13; 25 mM Tris pH 7.5, 75 mM NaCl, 50 mM arginine, 0.1 mM TCEP, 0.1 ug/ul BSA, room temperature 30 min; 0.05 uM probe, 0-2.5 uM protein; native 10% PAGE in TBE; conditions: protein: recombinant; tags: His; chain copies: 2; label: 32P; single strand
# [9] = target: T3, PARP1-FL; experiment: EMSA; monomer-equivalent K, n=1.70±0.14; 25 mM Tris pH 7.5, 75 mM NaCl, 50 mM arginine, 0.1 mM TCEP, 0.1 ug/ul BSA, room temperature 30 min; 0.05 uM probe, 0-2.5 uM protein; native 10% PAGE in TBE; conditions: protein: recombinant; tags: His; chain copies: 2; label: 32P; single strand
binder,measurement,setting,value
TAGGCACCGGCATCTTGAC (ssDNA) [19-mer ssDNA],binding signal,[1],15.7 ± 3.9 KDNA/KRNA
same,binding signal,[2],0.0153 ± 0.021 KDNA/KRNA
same,binding signal,[3],25.3 ± 3 KDNA/KRNA
CGUACGCGGAAUAGUUUAAACUGU (ssRNA) [24-mer ssRNA],Ka,[4],2.91e+06 M⁻¹
same,Ka,[5],2.88e+06 M⁻¹
same,Ka,[6],1.91e+06 M⁻¹
CCGUACGCGGGUUUAAACGA (ssRNA) [20-mer ssRNA],Ka,[7],1.13e+06 M⁻¹
same,Ka,[8],770000 M⁻¹
same,Ka,[9],2.43e+06 M⁻¹
